Here are results for 1 substance from patent US20190011465A1.

The target in one assay is D monomer (UniProt P02671). Kind of assay: competitive inhibition ELISA: HRP-B4 pre-incubated with soluble antigen, then added to a D-dimer-coated plate. For orientation: An ELISA detects its analyte on a solid surface through an enzyme-linked reagent.
The next assay deals with human D-dimer (human) (UniProt P02671). Described as above.

One may read the Kd as the constant that tells how readily two partners part at equilibrium. Read a high Kd as a looser complex. Consider monoclonal antibody B4, for which the reactivity in the assay with D monomer was found to be 5 µM. This substance registered a Kd in the assay with human D-dimer (human) of 980 pM.
